Assay: label from the status in PepcDB records

Sequence	protein production
MSLRIRVPATTANLGPGFDSCGLALTLYLTLDIGAEADSWYIEHNIGGGIPHDETNVIIETALNLAPNLTPHHLVMTCDIPPARGLGSSSAAVVAGIELANTLAELNLSKEEKVRIAAEIEGHPDNVAPAVLGNWVVGAKLDGEDFYVRHLFPDCALIAFIPKAELLTSESRGVLPDTLPFKEAVQASSIANVMIAAILRNDMALAGEMMERDLWHEKYRSQLVPHLTQIRDVAKSQGAYAACLSGAGPTVLVFAPRNLANTLQTSLQTLEIDADVLLLDVEGSGAEVFREGHHHHHH	not failed
MSLRITRIRLYKTDLPYVDGSYGWGAGNAITVARASVVVIDTDAGLQGCGEFTPCGENYMIAHSEGVDAFARLAAPQLLGQDPRQVARMERLMDHLVQGHGYAKAPFDAAFWDILGQATGQPVWMLLGGKLCDGAPMYRVAPQRSEAETRAELARHRAAGYRQFQIKVGADWQSDIDRIRACLPLLEPGEKAMADANQGWRVDNAIRLARATRDLDYILEQPCRSYEECQQVRRVADQPMKLDECVTGLHMAQRIVADRGAEICCLKISNLGGLSKARRTRDFLIDNRMPVVAEDSWGGEIASAAVAHFAASTPEEFLINSTDLMNYNTRSTGLGGPTVHQGRLYASDTPGLGVTPDFNSLGAPVADWALPEGHHHHHH	not failed
MSLRIVVTVKYVPDATGDRHFAEDLTVDRDDVDGLLSELDEYAVEQALQIADDADDADDAEITVLTVGPEDAKDALRKALSMGADKAIHVEDDDLHGTDVIGTSLVLAKAIEKAGYDLVISGMASTDGTAGVVPALLAERLGVPQVTLLSEVSVEDGVVKGRRDGDSASEQLEASLPAVVSVTDQSGEARYPSFKGIMAAKKKPVESWDLSDLDLEAEEVGLEGAWTKVDSATERPARTAGTIVKDEGEGGKQLAEFLAGQKFI	failed
MSLRLKKLQKIVPYSPLKSLKIWHLFCVVRLCSIVVTSMTAGKTPTHFTTQPLNRVLGETSGAFADLGTFLPLVLGLIALNQFSPQGIFLGFGVFAILSALFYRRPMPVQPMKVIAALVIAQGLTPGMLQASAMLMGIILLILAFSGAITWLAKQLSQAVSVGIQLAIGLQLMWMGAKMMSDFWLLGLGAFALLFASKFLPLRYLAMPLVIAAGMIWQANSQTDMATSLSIPALSASLHLAWPTLNEWSSAAILLVLPQLALTLTNAVIATSVMAQEKFPEDAAKLTPKNLAISSGLANLLLAPFGAAAMCHGAGGLAVQYHFGARTHLAPLIFGGTCLVIALFWDSQMAWLLGLIPVAILGSLLSIGGLQLAWSKRLIDGKPFCIFVILSTAVTCLAINAAAGLAVGIILEQGRRTWAMLAMR	failed
MSLRPRVLLVEDSTSLAILYKQYVKDEPYDIFHVETGRDAIQFIERSKPQLIILDLKLPDMSGEDVLDWINQNDIPTSVIIATAHGSVDLAVNLIQKGAEDFLEKPINADRLKTSVALHLKRAKLEDLVEGHHHHHH	not failed
MSLRSEQEMMDIFLDFALNDERIRLVTLEGSRTNRNIPPDNFQDYDISYFVTDVESFKENDQWLEIFGKRIMMQKPEDMELFPPELGNWFSYIILFEDGNKLDLTLIPIREAEDYFANNDGLVKVLLDKDSFINYKVTPNDRQYWIKRPTAREFDDCCNEFWMVSTYVVKGLARNEILFAIDHLNEIVRPNLLRMMAWHIASQKGYSFSMGKNYKFMKRYLSNKEWEELMSTYSVNGYQEMWKSLFTCYALFRKYSKAVSEGLAYKYPDYDEGITKYTEGIYCSVKEGHHHHHH	not failed
MSLRSHFATQKDQWQTYTKEKKIKIGFDATFVPMGYEEKDGSYIGFDIDLANAVFKLYGIDVEWQAIDWDMKETELKNGTIDLIWNGYSVTDERKQSADFTEPYMVNEQVLVTKKSSGIDSVAGMAGKTLGAQAGSSGYDAFNASPKILKDVVANQKVVQYSTFTQALIDLNSGRIDGLLIDRVYANYYLEKSGVLDQYNVMPAGYEGESFAVGARKVDKTLIKKINQGFETLYKNGEFQKISNKWFGEDVATDQVKGKREGHHHHHH	not failed
MSLRTGKTNVIALVLSVDEELMGFTSQMVFGITEVLSTTQYHLVVTPHIHAKDSMVPIRYILETGSADGVIISKIEPNDPRVRFMTERNMPFVTHGRSDMGIEHAFHDFDNEAYAYEAVERLAQCGRKRIAVIVPPSRFSFHDHARKGFNRGIRDFGLTEFPIDAVTIETPLEKIRDFGQRLMQSSDRPDGIVSISGSSTIALVAGFEAAGVKIGEDVDIVSKQSAEFLNWIKPQIHTVNEDIKLAGRELAKALLARINGEAAETLQSISGPVWSSMAPKEGHHHHHH	not failed

From a protein production outcome set (Wang et al. 2014)
